We go through 94 variants from the supplement of paper PMC10567573.

Sequences and labels used below:
B1: BRF1 (parent)
chain: FVESSGGGSSAVGQFVSLDGAGKT
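Also: lentivirally expressed fusions sorted by FACS into six bins by GFP to DsRed ratio, PSI derived from sequencing read proportions per bin multiplied by bin number.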

In this data set the parent is B1. Description: protein stability index of a GFP-peptide fusion (GPS, HEK-293T) (PSI 1-6); higher = more stable. The note with it: c terminus: a fixed tail appended.
As to FVESSAGGSSAVGQFVSLDGAGKT [G6A], the protein stability index is 2.37. For the variant FVESSRGGSSAVGQFVSLDGAGKT [G6R], the protein stability index is 2.27.

For FVESSYGGSSAVGQFVSLDGAGKT [G6Y], the protein stability index was 2.45.

Regarding FVESSVGGSSAVGQFVSLDGAGKT [G6V], the protein stability index was determined as 2.18.

Consider FVESSDGGSSAVGQFVSLDGAGKT [G6D], for which the protein stability index came out at 2.96. For FVESSEGGSSAVGQFVSLDGAGKT [G6E], the protein stability index is 2.94. As for FVESSQGGSSAVGQFVSLDGAGKT [G6Q], the figure is 2.66. As for FVESSTGGSSAVGQFVSLDGAGKT [G6T], the figure is 2.53; as for FVESSMGGSSAVGQFVSLDGAGKT [G6M], 1.76. Regarding FVESSHGGSSAVGQFVSLDGAGKT [G6H], the protein stability index was determined as 1.74. Turning to FVESSSGGSSAVGQFVSLDGAGKT [G6S], the protein stability index came out at 2.7. Turning to FVESSCGGSSAVGQFVSLDGAGKT [G6C], the protein stability index stood at 1.97. The figure for FVESSWGGSSAVGQFVSLDGAGKT [G6W] is 2.5.

FVESSKGGSSAVGQFVSLDGAGKT [G6K]: the protein stability index amounted to 2.3.

Take FVESSFGGSSAVGQFVSLDGAGKT [G6F]: the protein stability index stood at 1.45. Take FVESSIGGSSAVGQFVSLDGAGKT [G6I]: the protein stability index came to 1.49.

With FVESSNGGSSAVGQFVSLDGAGKT [G6N], the protein stability index turned out to be 1.89. As for FVESSLGGSSAVGQFVSLDGAGKT [G6L], the figure is 1.97; as for FVESSPGGSSAVGQFVSLDGAGKT [G6P], 2.23; as for FVESSGSGSSAVGQFVSLDGAGKT [G7S], 1.78. FVESSGWGSSAVGQFVSLDGAGKT [G7W]: the protein stability index amounted to 2.54. Take FVESSGHGSSAVGQFVSLDGAGKT [G7H]: the protein stability index worked out at 1.68. The figure for FVESSGFGSSAVGQFVSLDGAGKT [G7F] is 2.93.

Take FVESSGPGSSAVGQFVSLDGAGKT [G7P]: the protein stability index is 2.34. For FVESSGVGSSAVGQFVSLDGAGKT [G7V], the protein stability index was determined as 1.61. With FVESSGTGSSAVGQFVSLDGAGKT [G7T], the protein stability index stood at 2.38.

Consider FVESSGEGSSAVGQFVSLDGAGKT [G7E], for which the protein stability index is 3.02. With FVESSGNGSSAVGQFVSLDGAGKT [G7N], the protein stability index stood at 2.26. In the case of FVESSGKGSSAVGQFVSLDGAGKT [G7K], the protein stability index was determined as 2.09. As for FVESSGCGSSAVGQFVSLDGAGKT [G7C], the figure is 2.31; as for FVESSGQGSSAVGQFVSLDGAGKT [G7Q], 2.26. As for FVESSGRGSSAVGQFVSLDGAGKT [G7R], the figure is 1.38; as for FVESSGIGSSAVGQFVSLDGAGKT [G7I], 1.81. As for FVESSGMGSSAVGQFVSLDGAGKT [G7M], the figure is 2.05. Turning to FVESSGLGSSAVGQFVSLDGAGKT [G7L], the protein stability index is 1.52. The figure for FVESSGAGSSAVGQFVSLDGAGKT [G7A] is 2.86; for FVESSGDGSSAVGQFVSLDGAGKT [G7D] it is 3.52. The figure for FVESSGGGSSEVGQFVSLDGAGKT [A11E] is 3.28; for FVESSGGGSSFVGQFVSLDGAGKT [A11F] it is 2.02. In the case of FVESSGGGSSDVGQFVSLDGAGKT [A11D], the protein stability index worked out at 2.68. Turning to FVESSGGGSSHVGQFVSLDGAGKT [A11H], the protein stability index amounted to 1.9. On to FVESSGGGSSGVGQFVSLDGAGKT [A11G], for which the protein stability index amounted to 2.28. The figure for FVESSGGGSSCVGQFVSLDGAGKT [A11C] is 1.58; for FWESSGGGSSAVGQFVSLDGAGKT [V2W] it is 4.01. Turning to FFESSGGGSSAVGQFVSLDGAGKT [V2F], the protein stability index amounted to 4.2. The figure for FPESSGGGSSAVGQFVSLDGAGKT [V2P] is 4.97. For the variant FLESSGGGSSAVGQFVSLDGAGKT [V2L], the protein stability index worked out at 4.72. As for FMESSGGGSSAVGQFVSLDGAGKT [V2M], the protein stability index was found to be 4.49. Consider FSESSGGGSSAVGQFVSLDGAGKT [V2S], for which the protein stability index stood at 4.35. As for FAESSGGGSSAVGQFVSLDGAGKT [V2A], the figure is 3.78; as for FIESSGGGSSAVGQFVSLDGAGKT [V2I], 3.22; as for FNESSGGGSSAVGQFVSLDGAGKT [V2N], 4.94.

FKESSGGGSSAVGQFVSLDGAGKT [V2K]: the protein stability index was 4.25. As for FEESSGGGSSAVGQFVSLDGAGKT [V2E], the figure is 5.33.

For the variant FQESSGGGSSAVGQFVSLDGAGKT [V2Q], the protein stability index was determined as 4.12. For the variant FRESSGGGSSAVGQFVSLDGAGKT [V2R], the protein stability index was 4.44. The figure for FYESSGGGSSAVGQFVSLDGAGKT [V2Y] is 4.16; for FCESSGGGSSAVGQFVSLDGAGKT [V2C] it is 3.96; for FTESSGGGSSAVGQFVSLDGAGKT [V2T] it is 4.76. On to FDESSGGGSSAVGQFVSLDGAGKT [V2D], for which the protein stability index stood at 5.17. In the case of FGESSGGGSSAVGQFVSLDGAGKT [V2G], the protein stability index was 4.36. Consider FHESSGGGSSAVGQFVSLDGAGKT [V2H], for which the protein stability index turned out to be 3.87. Regarding FVESSGGGSLAVGQFVSLDGAGKT [S10L], the protein stability index was 1.81. Regarding FVESSGGGSRAVGQFVSLDGAGKT [S10R], the protein stability index was 1.98. As for FVESSGGGSHAVGQFVSLDGAGKT [S10H], the figure is 1.99.

In the case of FVESSGGGSVAVGQFVSLDGAGKT [S10V], the protein stability index is 1.96. As for FVESSGGGSDAVGQFVSLDGAGKT [S10D], the figure is 2.75; as for FVESSGGGSTAVGQFVSLDGAGKT [S10T], 2.72; as for FVESSGGGSEAVGQFVSLDGAGKT [S10E], 2.31. Consider FVESSGGGSKAVGQFVSLDGAGKT [S10K], for which the protein stability index came out at 1.42.

Regarding FVESSGGGSGAVGQFVSLDGAGKT [S10G], the protein stability index was found to be 2.23. Take FVESSGGGSYAVGQFVSLDGAGKT [S10Y]: the protein stability index came out at 1.64. For FVESSGGGSNAVGQFVSLDGAGKT [S10N], the protein stability index was determined as 2.31.

Regarding FVESSGGGSMAVGQFVSLDGAGKT [S10M], the protein stability index came out at 1.46. As for FVESSGGGSPAVGQFVSLDGAGKT [S10P], the figure is 2.57. Take FVESSGGGSIAVGQFVSLDGAGKT [S10I]: the protein stability index is 1.37. As for FVESSGGGSQAVGQFVSLDGAGKT [S10Q], the protein stability index was found to be 2.53. Take FVESSGGGSCAVGQFVSLDGAGKT [S10C]: the protein stability index came to 1.33. Take EVESSGGGSSAVGQFVSLDGAGKT [F1E]: the protein stability index stood at 5.04. The figure for AVESSGGGSSAVGQFVSLDGAGKT [F1A] is 4.71; for MVESSGGGSSAVGQFVSLDGAGKT [F1M] it is 4.99. For the variant YVESSGGGSSAVGQFVSLDGAGKT [F1Y], the protein stability index was 2.75. The figure for TVESSGGGSSAVGQFVSLDGAGKT [F1T] is 5.09; for CVESSGGGSSAVGQFVSLDGAGKT [F1C] it is 4.65.

With LVESSGGGSSAVGQFVSLDGAGKT [F1L], the protein stability index came out at 4.89. The figure for SVESSGGGSSAVGQFVSLDGAGKT [F1S] is 5.15; for KVESSGGGSSAVGQFVSLDGAGKT [F1K] it is 4.59. As for QVESSGGGSSAVGQFVSLDGAGKT [F1Q], the figure is 5.13; as for VVESSGGGSSAVGQFVSLDGAGKT [F1V], 4.82; as for WVESSGGGSSAVGQFVSLDGAGKT [F1W], 3.88.

In the case of HVESSGGGSSAVGQFVSLDGAGKT [F1H], the protein stability index worked out at 4.71. As to IVESSGGGSSAVGQFVSLDGAGKT [F1I], the protein stability index turned out to be 4.34. The figure for NVESSGGGSSAVGQFVSLDGAGKT [F1N] is 5.17; for PVESSGGGSSAVGQFVSLDGAGKT [F1P] it is 5.24.
